Source: US12338483

T1: GzmB/MMP AND-gate protease activity sensor
T1 chain: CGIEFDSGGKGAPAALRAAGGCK


Biological target: T1, GzmB/MMP AND-gate protease activity …

Protein	fluorescent signal in a cleavage assay (AND-gate sensor with GzmB and a second protease)
Tobacco Etch Virus protease (protein) GESLFKGPRDYNPISSTICHLTNESDGHTTSLYGIGFGPFIITNKHLFRRNNGTLLVQSLHGVFKVKNTTTLQQHLIDGRDMIIIRMPKDFPPFPQKLKFREPQREERICLVTTNFQTKSMSSMVSDTSCTFPSSDGIFWKHWIQTKDGQCGSPLVSTRDGFIVGIHSASNFTNTNNYFTSVPKNFMELLTNQEAQQWVSGWRLNADSVLWGGHKVFMSKPEEPFQPVKEATQLMNELVYSQ	The sensor produced low signals with the viral proteases compared to MMP8
West Nile Virus NS3 protease (protein) GGVLWDTPSPKEYKKGDTTTGVYRIMTRGLLGSYQAGAGVMVEGVFHTLWHTTKGAALMSGEGRLDPYWGSVKEDRLCYGGPWKLQHKWNGHDEVQMIVVEPGKNVKNVQTKPGVFKTPEGEIGAVTLDYPTGTSGSPIVDKNGDVIGLYGNGVIMPNGSYISAIVQGERMEEPAPAGFEPEML	The sensor produced low signals with the viral proteases compared to MMP8
